Results published in patent US20150337042A1 (AbbVie / Abbott, published 2015).
Positions count from the first letter of the chain named.

B1: Antibody P (AbP) (antibody, V domains shown)
VH: EVQLQESGPGLVKPSQTLSLTCTVSGYSISHDFAWNWIRQPPGKGLEWMGYISYSGNTRYQPSLKSRITISRDTSKNQFFLKLNSVTAADTATYYCVTASWGLPWWGQGTLVTVSS
VL: DIQMTQSPSSMSVSVGDRVTITCHSSQDINMNVGWLQQKPGKSFKGLIYHGAILDDGVPSRFSGSGSGTDYTLTISSLQPEDFATYYCVQYAEFPWTFGGGTKLEIK
notes: Full length IgG1
B2: Antibody N (AbN) (antibody, V domains shown)
VH: B1 VH with S30G, H31R, W101R, L103F, W105Y
VL: B1 VL with N30T, M31Y, A52S, I53N, D56H, A92D, E93D
notes: Full length IgG1
B3: Antibody A (AbA) (antibody, human IgG1, kappa, V domains shown)
VH: B1 VH with H31R, S55N, W101R, L103F, W105Y
VL: DIQMTQSPSSMSVSVGDRVTITCHSSQDINSNIGWLQQKPGKSFKGLIYHGTNLDDGVPSRFSGSGSGTDYTLTISSLQPEDFATYYCVQYAQFPWTFGGGTKLEIKR
notes: IgG1
B4: Antibody M (AbM) (antibody, V domains shown)
VH: B1 VH with S30G, H31R, S55N, W101R, L103F, W105Y
VL: B1 VL with N30T, M31Y, A52S, I53N, D56H, A92D, E93D
notes: Full length IgG1
B5: Antibody L (AbL) (antibody, V domains shown)
VH: B1 VH with S30G, H31K, S55N, W101R, W105Y
VL: B1 VL with N30T, M31Y, A52S, I53N, D56H, A92D, E93D
notes: Full length IgG1
B6: Antibody B (AbB) (antibody, V domains shown)
VH: B1 VH with H31N, S55K, W101R, L103F
VL: B1 VL with M31S, V33I, A52T, I53N, E93Q
notes: Converted from scFv into a full length IgG1 antibody
B7: Antibody E (AbE) (antibody, V domains shown)
VH: B1 VH with H31S, S100G, W101R, L103F, W105Y
VL: B1 VL with M31S, V33L, A52S, I53N, D56H, A92D, E93Q
notes: Full length IgG1
B8: Antibody H (AbH) (antibody, V domains shown)
VH: B1 VH with S30G, H31K, S55N, W101R, W105Y
VL: B1 VL with N30T, M31Y, V33I, I53N, A92D
notes: Full length IgG1
B9: Antibody D (AbD) (antibody, V domains shown)
VH: B1 VH with H31S, S100G, W101R, L103F, W105Y
VL: B1 VL with M31S, V33L, I53N, D55H
notes: Full length IgG1
B10: Antibody O (AbO) (antibody, V domains shown)
VH: B1 VH with S30G, H31K, S55N, W101R, L103F, W105Y
VL: B1 VL with N30T, M31Y, A52S, I53N, D56H, A92D, E93D
notes: Full length IgG1; also called Antibody 0
B11: Antibody C (AbC) (antibody, V domains shown)
VH: B1 VH with H31S, S100G, W101R, L103F, W105Y
VL: B1 VL with M31S, V33I, A52T, I53N, A92E, E93Q
notes: Full length IgG1
B12: Antibody F (AbF) (antibody, V domains shown)
VH: B1 VH with H31R, W101R, L103F, W105Y
VL: B1 VL with M31S, V33I, A52T, I53N, E93Q
notes: Full length IgG1
B13: Antibody G (AbG) (antibody, V domains shown)
VH: B1 VH with H31N, P41L, S55K, W101R, W105Y
VL: B1 VL with N30T, M31Y, V33I, I53N, A92D
notes: Full length IgG1
B14: Antibody J (AbJ) (antibody, V domains shown)
VH: B1 VH with S30G, H31K, W101R, W105Y
VL: B1 VL with N30T, M31Y, V33I, I53N, A92D
notes: Full length IgG1
B15: Antibody K (AbK) (antibody, V domains shown)
VH: B1 VH with H31R, S55N, W101R, L103F
VL: B1 VL with N30T, M31Y, A52S, I53N, D56H, A92D, E93D
notes: Full length IgG1

target: T1, wild type human EGFR on cells (A431, NHEK, SCC-15, H292) (human, UniProt P00533 25-1210); assay: cell-based or functional assay

IC50 of inhibition of EGFR signaling in A431 cells (phospho-EGFR ELISA)	Binder
> 40 nM	B1

target: T2, EGFRvIII extracellular domain (EGFR (1-29)-G-(298-645)-LESRGPF-Myc-NMHTG-6His) (human, UniProt P00533 298-641); assay: SPR (Biacore), antibody captured via anti-human Fc, antigen injected
T2 construct: also called recombinant EGFRvIII; not shown: Myc tag
Description: (§1) Biacore analysis was performed using a Biacore T100 with a CM5 sensory chip, and test antibodies were captured via anti-human Fc antibodies that were amino coupled to the chip using a standard amine coupling kit according to manufacturer's instructions (GE healthcare). Briefly, a CM5 chip surface was activated with EDC/NHS. Goat anti-human Fc specific polyclonal antibody (Thermo Fisher Scientific Inc., Rockford, Ill.) was diluted to 25 μg/mL in 10 mM sodium acetate (pH 4.5) and injected over the activated surface to achieve immobilization. Unreacted moieties on the biosensor surface were blocked with ethanolamine. The Biacore T100 is a surface plasmon resonance based biosensor for detecting, characterizing and quantifying bimolecular interactions, including the interactions between an antibody and its antigen. Antigen was injected at 80 μL/minute for 3 minutes and dissociation was followed for 15 minutes.

KD ratio (Ab1/variant Ab)	Kd	koff	kon	Binder
12.5	0.75 nM	0.000103 s⁻¹	137000 M⁻¹ s⁻¹	B2
4.1		0.000173 s⁻¹	76100 M⁻¹ s⁻¹	B3
14.9	0.63 nM	0.000118 s⁻¹	187000 M⁻¹ s⁻¹	B4
27.1	0.35 nM	6.95e-05 s⁻¹	200000 M⁻¹ s⁻¹	B5
4.2	2.2 nM	0.000173 s⁻¹	78300 M⁻¹ s⁻¹	B6
1.2	8.2 nM	0.00158 s⁻¹	193000 M⁻¹ s⁻¹	B7
63.1	0.15 nM	4.89e-05 s⁻¹	327000 M⁻¹ s⁻¹	B8
1.5	6.1 nM	0.000866 s⁻¹	141000 M⁻¹ s⁻¹	B9
35.2	0.27 nM	5.22e-05 s⁻¹	196000 M⁻¹ s⁻¹	B10
8.2	1.2 nM	0.000135 s⁻¹	117000 M⁻¹ s⁻¹	B1
2.6	3.6 nM	0.00079 s⁻¹	220000 M⁻¹ s⁻¹	B11
2.4	3.9 nM	0.000324 s⁻¹	83600 M⁻¹ s⁻¹	B12
47.2	0.2 nM	7.44e-05 s⁻¹	374000 M⁻¹ s⁻¹	B13
31.8	0.3 nM	9.4e-05 s⁻¹	318000 M⁻¹ s⁻¹	B14
15.8	0.6 nM	7.75e-05 s⁻¹	130000 M⁻¹ s⁻¹	B15

target: T3, truncated wild type EGFR 1-525 (EGFR1 (1-525)-SRGPF-Myc-NMHTG-6His) (human, UniProt P00533 25-525); assay: as above
T3 construct: the signal peptide is left out; not shown: Myc tag
Description: as §1

KD ratio (Ab1/variant Ab)	Kd	koff	kon	Binder
642	3.5 nM	1.71e-05 s⁻¹	4840 M⁻¹ s⁻¹	B2
10.1		0.000731 s⁻¹	3260 M⁻¹ s⁻¹	B3
387	5.9 nM	2.26e-05 s⁻¹	3840 M⁻¹ s⁻¹	B4
722	3.1 nM	1.78e-05 s⁻¹	5650 M⁻¹ s⁻¹	B5
10.5	220 nM	0.00119 s⁻¹	5460 M⁻¹ s⁻¹	B6
3.8		0.00367 s⁻¹	6170 M⁻¹ s⁻¹	B7
441	5.2 nM	4.07e-05 s⁻¹	7900 M⁻¹ s⁻¹	B8
4.1	550 nM	0.00322 s⁻¹	5820 M⁻¹ s⁻¹	B9
582	3.9 nM	2.05e-05 s⁻¹	5250 M⁻¹ s⁻¹	B10
106	21 nM	7.67e-05 s⁻¹	3580 M⁻¹ s⁻¹	B1
5.4	420 nM	0.000831 s⁻¹	1980 M⁻¹ s⁻¹	B12
	8.6 nM	5.88e-05 s⁻¹	6800 M⁻¹ s⁻¹	B13
60.5	38 nM	8.27e-05 s⁻¹	2200 M⁻¹ s⁻¹	B14
1370		7.92e-06 s⁻¹	4780 M⁻¹ s⁻¹	B15

target: T2, EGFRvIII extracellular domain (EGFR …); assay: SPR (Biacore T100)

fold increase in affinity relative to Ab1	fold increase in binding relative to Ab1	Binder
63 fold		B10
	> 47 fold	B13

target: T3, truncated wild type EGFR 1-525 (EGFR1 …); assay: SPR (Biacore T100)

fold increase in affinity relative to Ab1	Binder
263 fold	B13

target: T3, truncated wild type EGFR 1-525 (EGFR1 …); assay: SPR (summary of FIG. 6)

koff	Binder
< 0.0001 s⁻¹	B1

target: T4, EGFRvIII on U87MG cells (human, UniProt P00533 298-1210); assay: competition FACS on U87MG de2-7 cells expressing EGFRvIII; competitor Ab1-FITC at 100 nM
T4 construct: also called de2-7 EGFR

IC50 (read off the curve)	Binder
~30 nM	B3
~30 nM	B4
~30 nM	B1
~20 nM	B13
~30 nM	B15

target: T2, EGFRvIII extracellular domain (EGFR …); assay: SPR (Biacore T100), antibody captured on anti-human Fc, antigen in solution
Description: as §1

Kd	fold increase in affinity versus Ab1	Binder
2.3 nM	4 fold	B3

target: T3, truncated wild type EGFR 1-525 (EGFR1 …); assay: as above
Description: as §1

Kd	fold improvement in KD over Ab1	fold increase in affinity over the KD of Ab1	fold increase over the KD of Ab1	Binder
220 nM	10 fold			B3
590 nM		~4 fold		B7
1.7 nM			> 1300 fold	B15

target: T1, wild type human EGFR on cells (A431, …); assay: FACS binding to normal human epidermal keratinocytes (NHEK), AlexaFluor 488 secondary antibody
Description: NHEK cells express wild type EGFR.
Cells were harvested when approximately 80% confluent using trypsin, neutralized and washed once in PBS/1% FBS (FACS buffer) then resuspended at 2.5×10⁶ cells/mL in FACS buffer. 100 μL of cells/well were added to a round bottom 96-well plate. 10 μL of a 10x concentration of Ab (final concentrations are listed in the Figures) was added and plate was incubated at 4° C. for one hour. Wells were washed twice with FACS buffer then resuspended in 50 μL of secondary Ab (AlexaFluor 488) diluted in FACS buffer. The plate was incubated at 4° C. for one hour then washed twice with FACS buffer. Cells were then resuspended in 100 μL of PBS/1% formaldehyde and analyzed on a Becton Dickinson LSRII flow cytometer. Data was analyzed using WinList flow cytometry analysis software.

EC50 (read off the curve)	Binder
~50 nM	B3
~40 nM	B4
~30 nM	B1
~40 nM	B13
~40 nM	B15
